Measured values as given in the RNAGym collection of RNA variant scans (doi:10.1093/nar/gkz1192).

B1: CPEB3 Ribozyme (parent)
chain: UAACAGGGGGCCACAGCAGAAGCGUUCACGUCGCAGCCCCUGUCAGAUUCUGGUGAAUCUGCGAAUUCUGCUGUAUAUCUC

Variants of: B1
Experiment: self-cleavage, relative activity (ratio to wild type); higher = more cleavage; in vitro, sequencing
Method in brief: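 Relative activity was defined as the cleaved/total read fraction for a variant divided by the same fraction for the unmutated ribozyme. CPEB3 self-cleaving ribozyme libraries were made by rounds of error-prone PCR, barcoded, and transcribed in vitro with T7 RNA polymerase for 5 hours at 37°C, and cleavage ran through transcription plus a 15 min DNase I step before EDTA. Illumina sequencing of template-switched reverse transcripts gave the reads, and DNA sequencing mapped the barcodes. Averages come from three batches, using variants with at least 5 reads.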

In order of falling self-cleavage:
1. UAACAGGGGGCCACAGCAGAAGCGUUCACGUCGCAGCCCCUGUCCGAUUCUGGUGAAUCUGCGAAUUCUGCUAUAUAUCUC [A45C G73A]  1.19
2. UAACAGGGGGCCACAGCAGAAGCGUUCACGUCGCAGCCCCUGUCGGAUUCUGGUGAAUCUGCGAAUUCUGCUGUAUAUCUC [A45G]  0.85
3. UAACAGGGGGCCACAGCAGAAGCGUUCACGUCGCAGCCCCUGUCCGAUUCUGGUGAAUCUGCGAAUUCUGCUGCAUAUCUC [A45C U74C]  0.7
4. UAACAGGGGGCCACAGCAGAAGCGUUCACGUCGCAGCCCCUGUCCGAUUCUGGUGAAUCUGCGAAUUCUGCUGGAUAUCUC [A45C U74G]  0.68
5. UAACAGGGGGCCACAGCAGAAGCGUUCACGUCGCAGCCCCUGUCGGAUUCUGGUGAGUCUGCGAAUUCUGCUGUAUAUCUC [A45G A57G]  0.66
6. UAACAGGGGGCCACAGCAGAAGCGUUCACGUCGCAGCCCCUGUCGGAUUCUGGUGAAUCUGCGGAUUCUGCUGUAUAUCUC [A45G A64G]  0.65
7. UAACAGGGGGCCACAGCAGAAGCGUUCACGUCGCAGCCCCUGUCGGAUUCUGGUGGAUCUGCGAAUUCUGCUGUAUAUCUC [A45G A56G]  0.6
8. UAACAGGGGGCCACAGCAGAAGCGUUCACGUCGCAGCCCCUGUUAGAUUCUGGUGAAUCUGCGAAUUCUGCUGCAUAUCUC [C44U U74C]  0.6
9. UAACAGGGGGCCACAGCAGAAGCGUUCACGUCGCAGCCCCUGUCCGAUUCUGGUGAAUCUGCCAAUUCUGCUGUAUAUCUC [A45C G63C]  0.52
10. UAACAGGGGGCCACAGCAGAAGCGUUCACGUCGCAGCCCCUGUUAGAUUCUGGUGAAUCUGCGAAAUCUGCUGUAUAUCUC [C44U U66A]  0.51
11. UAACAGGGGGCCACAGCAGAAGCGUUCACGUCGCAGCCCCUGUCCGAUUCUGGUGAAUCUGCGAAUUCUGCUGUAAAUCUC [A45C U76A]  0.5
12. UAACAGGGGGCCACAGCAGAAGCGUUCACGUCGCAGCCCCUGUCCGAUUCUGGUGAAUCUGCGAAUUCUGCUGUUUAUCUC [A45C A75U]  0.5
13. UAACAGGGGGCCACAGCAGAAGCGUUCACGUCGCAGCCCCUGUCCGAUUCUGGUGAAUCUGCGAAUUCUGCCGUAUAUCUC [A45C U72C]  0.49
14. UAACAGGGGGCCACAGCAGAAGCGUUCACGUCGCAGCCCCUGUCCGAUUCUGGUGAAUCUGCAAAUUCUGCUGUAUAUCUC [A45C G63A]  0.49
15. UAACAGGGGGCCACAGCAGAAGCGUUCACGUCGCAGCCCCUGUCCGAUUCUGGUGAAUCUGCGAAUUCUGCUGUAUAUCAC [A45C U80A]  0.48
16. UAACAGGGGGCCACAGCAGAAGCGUUCACGUCGCAGCCCCUGUUAGAUUCUGGUGAAUCUGCGAAUUCUGCUGUAUAUCAC [C44U U80A]  0.46
17. UAACAGGGGGCCACAGCAGAAGCGUUCACGUCGCAGCCCCUGUCGGGUUCUGGUGAAUCUGCGAAUUCUGCUGUAUAUCUC [A45G A47G]  0.46
18. UAACAGGGGGCCACAGCAGAAGCGUUCACGUCGCAGCCCCUGUCCGAUUCUGGAGAAUCUGCGAAUUCUGCUGUAUAUCUC [A45C U54A]  0.45
19. UAACAGGGGGCCACAGCAGAAGCGUUCACGUCGCAGCCCCUGUCCGAUUCUGGUGAAUCUGCGAAUUCUGCUGUAUAUCUU [A45C C81U]  0.45
20. UAACAGGGGGCCACAGCAGAAGCGUUCACGUCGCAGCCCCUGUCGGAUUCUGGUGAUUCUGCGAAUUCUGCUGUAUAUCUC [A45G A57U]  0.43
21. UAACAGGGGGCCACAGCAGAAGCGUUCACGUCGCAGCCCCUGUCCGAUUCUGGUGAAUCUGCGAAUUCUGCUGUAUACCUC [A45C U78C]  0.42
22. UAACAGGGGGCCACAGCAGAAGCGUUCACGUCGCAGCCCCUGUCCGAUUCUGGUGAAUCUGCGAGUUCUGCUGUAUAUCUC [A45C A65G]  0.42
23. UAACAGGGGGCCACAGCAGAAGCGUUCACGUCGCAGCCCCUGUCCGAUUCUGGUGCAUCUGCGAAUUCUGCUGUAUAUCUC [A45C A56C]  0.42
24. UAACAGGGGGCCACAGCAGAAGCGUUCACGUCGCAGCCCCUGUCCGAUUCAGGUGAAUCUGCGAAUUCUGCUGUAUAUCUC [A45C U51A]  0.41
25. UAACAGGGGGCCACAGCAGAAGCGUUCACGUCGCAGCCCCUGUCCGAUUCUGGUGAAUCCGCGAAUUCUGCUGUAUAUCUC [A45C U60C]  0.41
26. UAACAGGGGGCCACAGCAGAAGCGUUCACGUCGCAGCCCCUGUCCGACUCUGGUGAAUCUGCGAAUUCUGCUGUAUAUCUC [A45C U48C]  0.4
27. UAACAGGGGGCCACAGCAGAAGCGUUCACGUCGCAGCCCCUGUCCGAUUCUGGCGAAUCUGCGAAUUCUGCUGUAUAUCUC [A45C U54C]  0.4
28. UAACAGGGGGCCACAGCAGAAGCGUUCACGUCGCAGCCCCUGUCGGAUUCUGGUGUAUCUGCGAAUUCUGCUGUAUAUCUC [A45G A56U]  0.4
29. UAACAGGGGGCCACAGCAGAAGCGUUCACGUCGCAGCCCCUGUCCGAUUCUGGUGAAUCUGCGAAUUCUGCUGUAUAUCCC [A45C U80C]  0.4
30. UAACAGGGGGCCACAGCAGAAGCGUUCACGUCGCAGCCCCUGUCGGAUUCUGGUGCAUCUGCGAAUUCUGCUGUAUAUCUC [A45G A56C]  0.39
31. UAACAGGGGGCCACAGCAGAAGCGUUCACGUCGCAGCCCCUGUCCGAUUCUGGUGAAUCUGCGAAUUCUGCUGUAUUUCUC [A45C A77U]  0.39
32. UAACAGGGGGCCACAGCAGAAGCGUUCACGUCGCAGCCCCUGUCCGAUUCUGGUGAAUCUGCGAAUUCUGCUGUAUAUCUC [A45C]  0.38
33. UAACAGGGGGCCACAGCAGAAGCGUUCACGUCGCAGCCCCUGUCCGAUUCUGGUGAAUCUGCGAAUUCUGCAGUAUAUCUC [A45C U72A]  0.38
34. UAACAGGGGGCCACAGCAGAAGCGUUCACGUCGCAGCCCCUGUCCGAUUCUGGUGAAUCUGUGAAUUCUGCUGUAUAUCUC [A45C C62U]  0.36
35. UAACAGGGGGCCACAGCAGAAGCGUUCACGUCGCAGCCCCUGUUAGAUUCUGGUGAAUCUGCGAAUUCUGCUGUAUACCUC [C44U U78C]  0.35
36. UAACAGGGGGCCACAGCAGAAGCGUUCACGUCGCAGCCCCUGUCCGAUUCUGGUGAACCUGCGAAUUCUGCUGUAUAUCUC [A45C U58C]  0.33
37. UAACAGGGGGCCACAGCAGAAGCGUUCACGUCGCAGCCCCUGUCCGAUUCUGGUGAAUCAGCGAAUUCUGCUGUAUAUCUC [A45C U60A]  0.33
38. UAACAGGGGGCCACAGCAGAAGCGUUCACGUCGCAGCCCCUGUCCGAUUCUGGUGAAUCUGCGGAUUCUGCUGUAUAUCUC [A45C A64G]  0.32
39. UAACAGGGGGCCACAGCAGAAGCGUUCACGUCGCAGCCCCUGUCCGAUUCCGGUGAAUCUGCGAAUUCUGCUGUAUAUCUC [A45C U51C]  0.32
40. UAACAGGGGGCCACAGCAGAAGCGUUCACGUCGCAGCCCCUGUCCGAUUCUGGUGAAUCUGCGAACUCUGCUGUAUAUCUC [A45C U66C]  0.31
41. UAACAGGGGGCCACAGCAGAAGCGUUCACGUCGCAGCCCCUGUUAGAUUCUGGUGAAUCUGCGAAUUCUGCUGUAUAACUC [C44U U78A]  0.3
42. UAACAGGGGGCCACAGCAGAAGCGUUCACGUCGCAGCCCCUGUUAGAUUCUGGUGAAUCUGCGAAUUCUGCUGUAUAUCCC [C44U U80C]  0.29
43. UAACAGGGGGCCACAGCAGAAGCGUUCACGUCGCAGCCCCUGUCCGAUUCUGGUGAAUCUGCGAAUUUUGCUGUAUAUCUC [A45C C68U]  0.28
44. UAACAGGGGGCCACAGCAGAAGCGUUCACGUCGCAGCCCCUGUCGGUUUCUGGUGAAUCUGCGAAUUCUGCUGUAUAUCUC [A45G A47U]  0.28
45. UAACAGGGGGCCACAGCAGAAGCGUUCACGUCGCAGCCCCUGUCCGAUUCUGGUGAAUCUGCGAAUUCCGCUGUAUAUCUC [A45C U69C]  0.27
46. UAACAGGGGGCCACAGCAGAAGCGUUCACGUCGCAGCCCCUGUCCGAUUCUGGUGGAUCUGCGAAUUCUGCUGUAUAUCUC [A45C A56G]  0.26
47. UAACAGGGGGCCACAGCAGAAGCGUUCACGUCGCAGCCCCUGUCCGAUUCUGGUGAGUCUGCGAAUUCUGCUGUAUAUCUC [A45C A57G]  0.26
48. UAACAGGGGGCCACAGCAGAAGCGUUCACGUCGCAGCCCCUGUCCGAUUCUGGUGAAUCUGCGAAUUCUGCUGUAUGUCUC [A45C A77G]  0.25
49. UAACAGGGGGCCACAGCAGAAGCGUUCACGUCGCAGCCCCUGUUAGAUUCUGGUGAAUCUGCGAAUUCUGCUGUACAUCUC [C44U U76C]  0.25
50. UAACAGGGGGCCACAGCAGAAGCGUUCACGUCGCAGCCCCUGUCCGAUUCUGGUGUAUCUGCGAAUUCUGCUGUAUAUCUC [A45C A56U]  0.25
51. UAACAGGGGGCCACAGCAGAAGCGUUCACGUCGCAGCCCCUGUCGGAUUCUGGUGACUCUGCGAAUUCUGCUGUAUAUCUC [A45G A57C]  0.24
52. UAACAGGGGGCCACAGCAGAAGCGUUCACGUCGCAGCCCCUGUCCGAUUCUGGUGAAUUUGCGAAUUCUGCUGUAUAUCUC [A45C C59U]  0.22
53. UAACAGGGGGCCACAGCAGAAGCGUUCACGUCGCAGCCCCUGUUAGAUUCUGGUGAAUCUGCGAAUUCUGCCGUAUAUCUC [C44U U72C]  0.19
54. UAACAGGGGGCCACAGCAGAAGCGUUCACGUCGCAGCCCCUGUUAGAUUCUGGUGAAUCUGCGAAUUCCGCUGUAUAUCUC [C44U U69C]  0.17
55. UAACAGGGGGCCACAGCAGAAGCGUUCACGUCGCAGCCCCUGUCCGGUUCUGGUGAAUCUGCGAAUUCUGCUGUAUAUCUC [A45C A47G]  0.17
56. UAACAGGGGGCCACAGCAGAAGCGUUCACGUCGCAGCCCCUGUCCGAUUCUGGUGAAUCUGCGAAUCCUGCUGUAUAUCUC [A45C U67C]  0.15
57. UAACAGGGGGCCACAGCAGAAGCGUUCACGUCGCAGCCCCUGUUAGAUUCUGGUGAAUCUGCGAAUUCUGCAGUAUAUCUC [C44U U72A]  0.14
58. UAACAGGGGGCCACAGCAGAAGCGUUCACGUCGCAGCCCCUGUCCGAUUCUGGUGAAUCUGCGAAUUCAGCUGUAUAUCUC [A45C U69A]  0.14
59. UAACAGGGGGCCACAGCAGAAGCGUUCACGUCGCAGCCCCUGUUAGAUUCUGGUGAAUCUGCGAAUACUGCUGUAUAUCUC [C44U U67A]  0.14
60. UAACAGGGGGCCACAGCAGAAGCGUUCACGUCGCAGCCCCUGUCCGAUUCUGGUGAAUCUGCGAAUUCUGCUGUGUAUCUC [A45C A75G]  0.14
61. UAACAGGGGGCCACAGCAGAAGCGUUCACGUCGCAGCCCCUGUUAGAUUCUGGUGAAUCUGCGAAUUCUGCUGUAAAUCUC [C44U U76A]  0.14
62. UAACAGGGGGCCACAGCAGAAGCGUUCACGUCGCAGCCCCUGUUAGAUUCUGGUGAAUCUGCGAAUUCAGCUGUAUAUCUC [C44U U69A]  0.13
63. UAACAGGGGGCCACAGCAGAAGCGUUCACGUCGCAGCCCCUGUUAGAUUCUGGUGAAUCUGCGAAUUCUGCUGUAUAGCUC [C44U U78G]  0.12
64. UAACAGGGGGCCACAGCAGAAGCGUUCACGUCGCAGCCCCUGUCCGAUUCUGGUGAAUCUGCGAUUUCUGCUGUAUAUCUC [A45C A65U]  0.12
65. UAACAGGGGGCCACAGCAGAAGCGUUCACGUCGCAGCCCCUGUCCGAUUCUGGUCAAUCUGCGAAUUCUGCUGUAUAUCUC [A45C G55C]  0.11
66. UAACAGGGGGCCACAGCAGAAGCGUUCACGUCGCAGCCCCUGUUAGAUUCUGGUGAAUCUGCGAAUCCUGCUGUAUAUCUC [C44U U67C]  0.11
67. UAACAGGGGGCCACAGCAGAAGCGUUCACGUCGCAGCCCCUGUCCGAUCCUGGUGAAUCUGCGAAUUCUGCUGUAUAUCUC [A45C U49C]  0.11
68. UAACAGGGGGCCACAGCAGAAGCGUUCACGUCGCAGCCCCUGUCCGAUUCUGGUGAAUCUGCGUAUUCUGCUGUAUAUCUC [A45C A64U]  0
